Measured values reported in patent US20130244255A1, “ANTIBODIES DIRECTED TO GPNMB AND USES THEREOF” (priority 2006, published 2013).
Values belong to the substance of their own block, whether it stands above or below them.

Assays:
[1] = target: GPNMB (CG56972) as expressed by human cell lines (human) (UniProt Q14956); test: flow cytometry on HEK293 cells transfected with GPNMB plasmid, PE-conjugated secondary antibody; the same sample on empty-vector cells is printed as 7.96
[2] = target: GPNMB (CG56972) as expressed by human cell lines (human) (UniProt Q14956); test: FACS on UACC-62 cells, antibody 1 ug/mL
[3] = target: GPNMB (CG56972) as expressed by human cell lines (human) (UniProt Q14956); test: flow cytometry on SK-MEL-2 cells, anti human IgG PE; control sample
[4] = target: GPNMB (CG56972) as expressed by human cell lines (human) (UniProt Q14956); test: flow cytometry on HEK293 cells transfected with GPNMB plasmid, secondary antibody alone (background); on empty-vector cells printed as 5.86

Sequence of GPNMB (CG56972) as expressed by human cell lines (human) (Q14956 23-492): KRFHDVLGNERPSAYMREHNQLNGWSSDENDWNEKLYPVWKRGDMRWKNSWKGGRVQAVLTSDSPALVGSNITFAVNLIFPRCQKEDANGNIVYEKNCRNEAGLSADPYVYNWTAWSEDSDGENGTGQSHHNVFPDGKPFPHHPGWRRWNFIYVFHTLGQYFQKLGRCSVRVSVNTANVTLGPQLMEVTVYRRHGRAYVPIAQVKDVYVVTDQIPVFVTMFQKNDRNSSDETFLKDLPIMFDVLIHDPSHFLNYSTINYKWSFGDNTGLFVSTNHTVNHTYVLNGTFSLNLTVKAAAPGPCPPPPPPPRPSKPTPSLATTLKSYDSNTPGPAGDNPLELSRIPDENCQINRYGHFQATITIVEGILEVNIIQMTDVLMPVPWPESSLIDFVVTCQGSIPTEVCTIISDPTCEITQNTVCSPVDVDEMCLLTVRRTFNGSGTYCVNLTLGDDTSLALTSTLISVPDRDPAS

- Geometric mean [1]: 8.63
Substance: isotype-matched control IgG2 antibody

- Geo Mean Ratio (relative to pK16) [2]: 1.9
Substance: CR011.2.6.2 (antibody)

- Geo Mean [3]: 3.03
- Median [3]: 2.84
Substance: Control (antibody)

- Geometric mean [4]: 7.69
Substance: Secondary Ab-PE (antibody)
